The text below walks through data of article PMC6300308, “Linear Eyring Plots Conceal a Change in the Rate-Limiting Step in an Enzyme Reaction” (Biochemistry, 2018).

One data set deals with T1, PaHBDH (Psychrobacter arcticus, UniProt Q4FRT2).
T1 construct: gene Psyc_1428; recombinant purified enzyme; cloning details only in supplement
T1 sequence (Q4FRT2 1-266): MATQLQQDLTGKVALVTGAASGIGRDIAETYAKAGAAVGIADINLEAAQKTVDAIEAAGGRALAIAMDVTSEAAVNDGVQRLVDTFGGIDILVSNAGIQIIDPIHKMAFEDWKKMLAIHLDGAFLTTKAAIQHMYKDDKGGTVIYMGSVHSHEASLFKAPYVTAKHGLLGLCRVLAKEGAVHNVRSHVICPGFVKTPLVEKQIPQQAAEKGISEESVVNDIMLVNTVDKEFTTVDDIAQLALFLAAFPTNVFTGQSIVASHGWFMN
Description: stopped-flow single-turnover kinetics, NADH limiting. The data set is classed as biochemical. To be noted: acetoacetate or 3-oxovalerate as co-substrate; 283 and 298 K.

Another data set addresses T2, AbHBDH (Acinetobacter baumannii, UniProt A0A1E3M3N6).
T2 construct: gene AUO97_16470; recombinant purified enzyme; cloning details only in supplement
T2 sequence (A0A1E3M3N6 1-261): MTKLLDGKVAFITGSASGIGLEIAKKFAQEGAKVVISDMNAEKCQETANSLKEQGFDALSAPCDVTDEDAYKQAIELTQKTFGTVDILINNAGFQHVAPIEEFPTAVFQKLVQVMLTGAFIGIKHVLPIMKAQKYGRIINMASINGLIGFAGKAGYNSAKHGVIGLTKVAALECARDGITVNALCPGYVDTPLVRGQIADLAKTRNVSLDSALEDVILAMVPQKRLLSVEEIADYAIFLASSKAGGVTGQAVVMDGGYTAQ
The description is as above. The data set is classed as biochemical. To be noted: acetoacetate or 3-oxovalerate as co-substrate; 283 and 298 K.

Substrate in data set [1]: NC(=O)C1=CN([C@@H]2O[C@H](COP(=O)(O)OP(=O)(O)OC[C@H]3O[C@@H](n4cnc5c(N)ncnc54)[C@H](O)[C@@H]3O)[C@@H](O)[C@H]2O)C=CC1
The data set can be described thus: purified protein, by the assay type. The arrangement: steady-state saturation kinetics of NADH-dependent reduction by purified recombinant HBDH, 298 K. The text has this: (§1) We measured saturation curves for AbHBDH and PaHBDH at various temperatures (283–330 K for AbHBDH and 283–318 K for PaHBDH) (Figure S2 and Tables S1–S4). […] Apparent steady-state catalytic constants (kcat) were used to construct Eyring plots for each enzyme (Figure 1). […] Accordingly, a significant negative ΔCp^⧧ is predicted for the psychrophilic enzyme but not for the mesophilic one (Table S6).

Substrate in data set [2]: CCC(=O)CC(=O)O
The data set can be described thus: steady-state saturation curves. To be noted: co-substrate NADH; 283-318 K; 45.0 °C. The data set is classed as biochemical, Psychrobacter arcticus. The text has this: (§2) steady-state saturation curves on PaHBDH | We measured saturation curves for AbHBDH and PaHBDH at various temperatures

Substrate in data set [3]: CC(=O)CC(=O)O
Description: steady-state saturation curves. The data set is classed as biochemical, Psychrobacter arcticus. To be noted: co-substrate NADH; 283-318 K; 45.0 °C.
Excerpt: as §2

Substrate in data set [4]: NC(=O)C1=CN([C@@H]2O[C@H](COP(=O)(O)OP(=O)(O)OC[C@H]3O[C@@H](n4cnc5c(N)ncnc54)[C@H](O)[C@@H]3O)[C@@H](O)[C@H]2O)C=CC1
The data set can be described thus: purified protein, by the assay type. The arrangement: steady-state saturation kinetics of NADH-dependent reduction by purified recombinant HBDH, 298 K.
Excerpt: as §1
This is another data set of the same source.

Like-named read-outs stand apart in the source and are kept apart here.

Consider `NC(=O)C1=CN([C@@H]2O[C@H](COP(=O)(O)OP(=O)(O)OC[C@H]3O[C@@H](n4cnc5c(N)ncnc54)[C@H](O)[C@@H]3O)[C@@H](O)[C@H]2O)C=CC1` [NADH], for which the “stopped-flow single-turnover kinetics, NADH limiting” value was “demonstrating NADH is saturated with PaHBDH and kSTO is unimolecular” at PaHBDH; “demonstrating NADH is saturated with AbHBDH and kSTO is unimolecular” at AbHBDH.

B1: PaHBDH (Psychrobacter arcticus 273-4) (protein)
chain: T1 sequence (Q4FRT2 1-266)
notes: recombinant purified enzyme; cloning details only in supplement
With B1, the Km was 30 ± 10 µM in data set [1], 36 ± 2 µM in data set [2], 110 ± 10 µM in data set [3] and 3.4 ± 0.4 µM in data set [4]. Further, the kcat in data set [1] was found to be 86 ± 4 s⁻¹; in data set [2], 5.9 ± 0.1 s⁻¹; in data set [3], 86 ± 4 s⁻¹; in data set [4] it was 5.9 ± 0.1 s⁻¹. The kcat/Km turned out to be 2.7e+06 ± 700000 M⁻¹ s⁻¹ in data set [1] and 1.7e+06 ± 800000 M⁻¹ s⁻¹ in data set [4].
